According to PMC7568541:

Legend:
SIRT6(270-355) CTD = assay: EMSA; conditions: EMSA: 10 mM Tris, 50 mM NaCl (100 mM for DNA), 0.5 mM TCEP, 6% glycerol, pH 7.4, on ice, 50 nM NCP, FRET: 50 mM Tris, pH 7.5, 1 nM …
[1] = molecular target: recombinant 601-positioned nucleosome core particle (X. laevis histones, 147-bp 601 DNA) (x. laevis); assay: native gel or EMSA
[2] = molecular target: recombinant 601-positioned nucleosome core particle (X. laevis histones, 147-bp 601 DNA) (x. laevis); assay: native gel or EMSA; competition: SIRT6:NCP complexes pre-formed with 100 nM SIRT6, then competed with LANA peptide (300 nM to 100 µM); IC50 from percent inhibition
[3] = system: LANA peptide (Kaposi's sarcoma-associated herpesvirus); assay: competition EMSA; conditions: EMSA: 10 mM Tris, 50 mM NaCl (100 mM for DNA), 0.5 mM TCEP, 6% glycerol, pH 7.4, on ice, 50 nM NCP, FRET: 50 mM Tris, pH 7.5, 1 nM …
[4] = system: LANA peptide (Kaposi's sarcoma-associated herpesvirus); assay: competition EMSA; conditions: EMSA: 10 mM Tris, 50 mM NaCl (100 mM for DNA), 0.5 mM TCEP, 6% glycerol, pH 7.4, on ice, 50 nM NCP, FRET: 50 mM Tris, pH 7.5, 1 nM …; remark: listed apart in the source
SIRT6(1-301) = assay: EMSA; conditions: 139 nM in text, EMSA: 10 mM Tris, 50 mM NaCl (100 mM for DNA), 0.5 mM TCEP, 6% glycerol, pH 7.4, on ice, 50 nM NCP, FRET: 50 mM Tris, pH 7.5, 1 nM …
SIRT6 25N mutant = assay: EMSA; conditions: apparent, n=1, EMSA: 10 mM Tris, 50 mM NaCl (100 mM for DNA), 0.5 mM TCEP, 6% glycerol, pH 7.4, on ice, 50 nM NCP, FRET: 50 mM Tris, pH 7.5, 1 nM …
SIRT6 = assay: EMSA; conditions: apparent, both complexes as bound, 50 nM NCP, EMSA: 10 mM Tris, 50 mM NaCl (100 mM for DNA), 0.5 mM TCEP, 6% glycerol, pH 7.4, on ice, FRET: 50 mM Tris, pH 7.5, 1 nM …
SIRT6(1-292) = assay: EMSA; conditions: EMSA: 10 mM Tris, 50 mM NaCl (100 mM for DNA), 0.5 mM TCEP, 6% glycerol, pH 7.4, on ice, 50 nM NCP, FRET: 50 mM Tris, pH 7.5, 1 nM …
SIRT6 27R mutant = assay: EMSA; conditions: apparent, n=1, EMSA: 10 mM Tris, 50 mM NaCl (100 mM for DNA), 0.5 mM TCEP, 6% glycerol, pH 7.4, on ice, 50 nM NCP, FRET: 50 mM Tris, pH 7.5, 1 nM …
SIRT6(AAA) = assay: EMSA; conditions: EMSA: 10 mM Tris, 50 mM NaCl (100 mM for DNA), 0.5 mM TCEP, 6% glycerol, pH 7.4, on ice, 50 nM NCP, FRET: 50 mM Tris, pH 7.5, 1 nM …
SIRT6(TQ3) = assay: FRET; conditions: EMSA: 10 mM Tris, 50 mM NaCl (100 mM for DNA), 0.5 mM TCEP, 6% glycerol, pH 7.4, on ice, 50 nM NCP, FRET: 50 mM Tris, pH 7.5, 1 nM …
[5] = molecular target: nucleosome core particle with four alanine mutations at the H2A acidic patch (x. laevis); assay: native gel or EMSA; 50 nM recombinant nucleosomes with varying SIRT6 protein; 10 mM Tris, 50 mM NaCl, 0.5 mM TCEP, 6% glycerol, pH 7.4, on ice >15 min; SYBR Safe; apparent KD, shifted complexes together as bound fraction, ligand-depleted (quadratic) fit
[6] = molecular target: recombinant 601-positioned nucleosome core particle (X. laevis histones, 147-bp 601 DNA) (x. laevis); assay: as above
[7] = molecular target: recombinant 601-positioned nucleosome core particle (X. laevis histones, 147-bp 601 DNA) (x. laevis); assay: FRET or BRET; 1 nM Cy3-labeled nucleosomes titrated with SIRT6^(TQ3) in solution; 50 mM Tris, 50 mM NaCl, 0.5 mM TCEP, pH 7.5; KD(High) fitted from 0-5 nM (ligand-depleted), KD(Low) from 5-500 nM (specific binding)
[8] = molecular target: recombinant 601-positioned nucleosome core particle (X. laevis histones, 147-bp 601 DNA) (x. laevis); assay: native gel or EMSA; TAMRA-labeled SIRT6 with NCP; TAMRA and SYBR Safe fluorescence scanned in the same gel, TAMRA signal normalized to DNA content; gel blotted for histone H3
[9] = molecular target: NCP with the high affinity site saturated with full-length SIRT6 (1:1 SIRT6:NCP complex) (x. laevis | not stated) (UniProt Q8N6T7); assay: native gel or EMSA; high affinity site on NCPs saturated with 10 nM full-length SIRT6, then increasing SIRT6^(1–292); fraction bound from the loss of free nucleosomes

Sequence of Latency Associated Nuclear Antigen (LANA) peptide from Kaposi’s sarcoma-associated herpesvirus (Q9QR71 1-23): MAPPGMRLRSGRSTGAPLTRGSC

601 DNA (147 bp)
Kd (SIRT6(270-355) CTD; 100 mM NaCl, 50 nM DNA): 450 nM

Latency Associated Nuclear Antigen (LANA) peptide from Kaposi’s sarcoma-associated herpesvirus
IC50 [1]: 6100 nM | IC50 [2]: 9500 nM

NCP (601, 147 bp)
IC50 [3]: 9500 nM | IC50 [4]: 6100 nM | Kd (SIRT6(1-301)): 140 nM | Kd (SIRT6 25N mutant): 14 nM | Kd (SIRT6): 13 nM | Kd (SIRT6(1-292); 254 nM in text): 250 nM | Kd (SIRT6(1-292)): 40 nM | Kd (SIRT6 27R mutant): 14 nM | Kd (SIRT6(AAA)): 97 nM | Kd (SIRT6(270-355) CTD): 400 nM

NCP(Cy3)
Kd (SIRT6(TQ3); high-affinity site): 0.46 nM | Kd (SIRT6(TQ3); low-affinity site): 30 nM

SIRT6 (full-length, His-tagged) (from UniProt Q8N6T7 1-355) (enzyme)
Kd [5]: 140 nM | Kd [6]: 13 nM

SIRT6 C-terminal domain (residues 270–355) (from UniProt Q8N6T7 270-355) (domain or fragment)
Kd [6]: 400 nM

SIRT6 labeled with Tide Quencher 3 (TQ3) at cysteine 18 (from UniProt Q8N6T7 2-355) (enzyme)
KD(High), high affinity site [7]: 0.46 nM | KD(Low), low affinity site [7]: 30 nM

SIRT6 labeled with tetramethylrhodamine (TAMRA) at cysteine 320 (from UniProt Q8N6T7 2-355) (enzyme)
stoichiometry N [8]: 2

SIRT6 residues 1–292 (C-terminal truncation) (from UniProt Q8N6T7 1-292) (domain or fragment)
KD(Low), low affinity site [9]: 40 nM | Kd [6]: 250 nM | stoichiometry N [6]: 2

SIRT6 residues 1–301 (C-terminal truncation) (from UniProt Q8N6T7 1-301) (domain or fragment)
Kd [6]: 140 nM | stoichiometry N [6]: 2

SIRT6 with alanine substitutions at S45, N206 and N208 (from UniProt Q8N6T7 2-355) (enzyme)
Kd [6]: 97 nM
